# According to the RNAGym collection of RNA variant scans (doi:10.7554/elife.80360):
# B1: Hairpin Ribozyme (parent)
# chain: GUCCUCUUUCACGUGCGCGUGAAAGAGAGAAGUGAACCAGAGAAACACACGUUGUGGUAUAUUACCUGGUA
# Variants of: B1
# Test: self-cleavage, relative activity (ratio to wild type); higher = more cleavage; co-transcriptional
row,Variant,self-cleavage
1,GUCCUCUUUCACGCGCGCGUGACAGAGAGAAGUGAACCAGAGAAACACACGUUGUGGUAUAUUACCUGGUA [U14C A23C],0.693
2,GUCCUCUUUCACGAGCGCGUGAAAGAGAGAAGUGAACCAGAGAAACACACGUUGUGGUAUAUAACCUGGUA [U14A U63A],0.162
3,GUCCUCUUUCACGCGCGCGUGAAAGAGAGAAGUGAACCAGUGAAACACACGUUGUGGUAUAUUACCUGGUA [U14C A41U],1.34
4,GUCCUCUUUCACGCGCGCGUGAAAGCGAGAAGUGAACCAGAGAAACACACGUUGUGGUAUAUUACCUGGUA [U14C A26C],0.727
5,GUCCUCUUUCACGCGCGCGUGAAAGGGAGAAGUGAACCAGAGAAACACACGUUGUGGUAUAUUACCUGGUA [U14C A26G],0.919
6,GUCCUCUUUCACGCGCGCGUGAAAGUGAGAAGUGAACCAGAGAAACACACGUUGUGGUAUAUUACCUGGUA [U14C A26U],0.418
7,GUCCUCUUUCACGCGCGCGUGAAAGAGAGAAGUGAACCAGAGAAACACACGCUGUGGUAUAUUACCUGGUA [U14C U52C],0.938
8,GUCCUCUUUCACGCGCGCGUGAAAAAGAGAAGUGAACCAGAGAAACACACGUUGUGGUAUAUUACCUGGUA [U14C G25A],0.734
9,GUCCUCUUUCACGCGCGCGUGAAACAGAGAAGUGAACCAGAGAAACACACGUUGUGGUAUAUUACCUGGUA [U14C G25C],0.728
10,GUCCUCUUUCACGCGCGCGUGAAAGAGUGAAGUGAACCAGAGAAACACACGUUGUGGUAUAUUACCUGGUA [U14C A28U],0.668
11,GUCCUCUUUCACGCGCGCGUGGAAGAGAGAAGUGAACCAGAGAAACACACGUUGUGGUAUAUUACCUGGUA [U14C A22G],0.864
12,GUCCUCUUUCACGCGCGCGUGAAAGAGAGAAGUGAACCAGAGAAACACACGUUGUGGUAUAUUACCCGGUA [U14C U67C],0.227
13,GUCCUCUUUCACGAGCGCGUGAAAGAGAGAAGUGAACCAGAGAAACACACGUUGAGGUAUAUUACCUGGUA [U14A U55A],0.201
14,GUCCUCUUUCACGAGCGCGUGAAAGAGAGAAGUGAACCAGAGAAACACACGUUGCGGUAUAUUACCUGGUA [U14A U55C],0.206
15,GUCCUCUUUCACGCGCGCGUGAAAGAGAGAAGUGAACCAGAGAAACACACGUUGUGGUACAUUACCUGGUA [U14C U60C],1.13
16,GUCCUCUUUCACGCGCGCGUGAAAGAGAGAAGUGAACCAGAGAAACACACGUUGUGGUAUAUUACCUGGUA [U14C],0.982
17,GUCCUCUUUCACGCGCGCGUGAAAGAGAGAAGUGAACCUGAGAAACACACGUUGUGGUAUAUUACCUGGUA [U14C A39U],0.387
18,GUCCUCUUUCACGCGCGCGUGAAAGAGAGAAGUGAACCAGAGAAACACACGUUGUGGUAUAUGACCUGGUA [U14C U63G],0.0837
19,GUCCUCUUUCACGCGCGCGUGAAAGAGAAAAGUGAACCAGAGAAACACACGUUGUGGUAUAUUACCUGGUA [U14C G29A],0.0903

row,Variant,self-cleavage
1,GUCCUCUUUCACGCGCGCGUGAAAGAGAGAAGUCAACCAGAGAAACACACGUUGUGGUAUAUUACCUGGUA [U14C G34C],1.5
2,GUCCUCUUUCACGCGCGCGUGAAAGAGAGAAGUGAACCAGAGAAACACAAGUUGUGGUAUAUUACCUGGUA [U14C C50A],0.0893
3,GUCCUCUUUCACGCGCGCGUGAAAGAGAGAAGUGAACCAGAGAAACACACGUUGUGGUAUAUUACCUGAUA [U14C G69A],0.341
4,GUCCUCUUUCACGCGCGCGUGAAAGAGAGAAGUGAUCCAGAGAAACACACGUUGUGGUAUAUUACCUGGUA [U14C A36U],0.844
5,GUCCUCUUUCACGCGCGCGUGAAAGAGAGAAGUGAGCCAGAGAAACACACGUUGUGGUAUAUUACCUGGUA [U14C A36G],1.44
6,GUCCUCUUUCACGCGCGCGUGAAAGAGAGAAGUGACCCAGAGAAACACACGUUGUGGUAUAUUACCUGGUA [U14C A36C],0.476
7,GUCCUCUUUCACGCGCGCGUGAAAGAGAGAAGUGAACCAGAGAAACAUACGUUGUGGUAUAUUACCUGGUA [U14C C48U],0.117
8,GUCCUCUUUCACGCGCGCGUGAAAGAGAGAAGUGAACCAGAGAAACAAACGUUGUGGUAUAUUACCUGGUA [U14C C48A],0.256
9,GUCCUCUUUCACGAGCGCGUGAAAGAGAGAAGUGAACCAGAGAAACACACGUUGUGGUAAAUUACCUGGUA [U14A U60A],0.987
10,GUCCUCUUUCACGAGCGCGUGAAAGAGAGAAGUGAACCAGAGAAACACACGUUGUGGUACAUUACCUGGUA [U14A U60C],1.07
11,GUCCUCUUUCACGCGCGCGUGAAAGAGAGCAGUGAACCAGAGAAACACACGUUGUGGUAUAUUACCUGGUA [U14C A30C],0.263
12,GUCCUCUUUCACGCGCGCGUGAAAGAGAGAAGUGAACGAGAGAAACACACGUUGUGGUAUAUUACCUGGUA [U14C C38G],0.246
13,GUCCUCUUUCACGCGCGCGUGAAAGAGAGAAGUGAACCAGAGAAACACACGUUGUGGUAUAUUACCUGGGA [U14C U70G],0.679
14,GUCCUCUUUCACGCGCGCGUGAAAGAGAGAACUGAACCAGAGAAACACACGUUGUGGUAUAUUACCUGGUA [U14C G32C],0.244
15,GUCCUCUUUCACGCGCGCGUGAAAGAGAGAAUUGAACCAGAGAAACACACGUUGUGGUAUAUUACCUGGUA [U14C G32U],0.138
16,GUCCUCUUUCACGAGCGCGUGAAAGAGAGAAGUGAACCAGAGAAACACACGUUCUGGUAUAUUACCUGGUA [U14A G54C],0.338
17,GUCCUCUUUCACGAGCGCGUGAAAGAGAGAAGUGAACCAGAGAAACACACGUUGUGUUAUAUUACCUGGUA [U14A G57U],0.195
18,GUCCUCUUUCACGAGCGCGUGAAAGAGAGAAGUGAACCAGAGAAACACACGUUGUGCUAUAUUACCUGGUA [U14A G57C],0.132
19,GUCCUCUUUCACGCGCGCGUGAAAGAGAGAAGUGAACCAGAGAAACACACGUUGUGGUAUAUUAUCUGGUA [U14C C65U],0.295
